In the DeepSol protein solubility set:

Test: soluble on expression in E. coli; label from the status in PepcDB or PDB records

| Sequence | soluble on expression in E. coli |
| --- | --- |
| MFDTLTHGELLKKTAMEVEADIAGIHKQIEEISERNEWRVLQSYRKHKVSDTHFTPSTGYGYDDIGRDTLESIYADVFGGEAGLVRPQIISGTHAISIALFGVLRPGDELLYITGKPYDTLEEIVGVRGGENAGSLKDFQIGYNAVDLTKDGKIDYDAVAAAINPKTKVIGIQRSKGYANRPSFLISEIKEMIRFVKEINENLIVFVDNCYGEFVEELEPCHVGADLMAGSLIKNPGGGLAKTGGYLVGKAKWIEACSYRMTSPGIGREAGASLYSLQEMYQGFFLAPHVVSQSLKGAVFTARFLEKLGFTSNPKWDAKRTDLIQSVEFSDGEKMIAFCQAIQFASPIDAHVTPYPAYMPGYEDDVIMAAGTFIQGASIELSADGPIRPPYVAYVQGGLTYSHVKNAICSAVDSLMQKQLILEHHHHHH | soluble |
| MSLNTSRKERSVSTFSIVGYDPKTDELGIAVQSKFLGVGAIVPWAKAGVGAIATQSYANTSYGSKGLDLLARGKTAEETLALLINEDADRHLRQVGIVDAKGRAASFTGQGCYEWAGSMTGHCFAVQGNLLVSEETVKTMAQKFVQATGSLAERLLLTLEAGQCAGGDRRGKQSAALLIVKEKGGYGGFNDRLIDLRVDDHPEPIQELKRIFELQQLYFAKPKEQDQLPLTDDRISIIKSSLHSLGYLSLTQHWRDALQQFIATENLEGRMGTGTQTIDRVVFSFLQKKAKEEGHHHHHH | soluble |
| MSLVRMRVGKFDYLNNFLPYYFLNEKVEIVEANPREMASMLLSGRIDYAPVPAFFYLKNRERLRHYEFCVASEGKVLSVVVVSRKKELDDGSIAVTPHSLTSVNLLKILLAERGMKNMLVEVNTAKASEMLELCPHALVIGDEAIKARMIYKVVMDLGEEWYELTSLPAVFGISASLKETNAEEMDRKILMATEEGYRRFDEVVRAAEKAFKMPREFLEEYFRTLKFRLSSKERRGLDEFEKYCRDYGLLEEGHHHHHH | not soluble |
| MSPAPSRPFSVLRANDVLWLSLTAAEYDQSTYGSSTGPVYVSDSVTLVNVATGAQAVARSLDWTKVTLDGRPLSTIQQHSKTFFVLPLRGKLSFWEAGTTKAGYPYNYNTTASDQLLVENAAGHRVAISTYTTSLGAGPVSISAVAVLA | soluble |
| MAHHHHHHMTVYPSLFVCHGGGPLPLLRDEGHKMLVDALKSHRKLLENRFGLPKAIVVISAHYETNTPKVGGAERPSLLFDYYGFPEESYKFRYPVPGNAPLAAAIVNALTVGGFHAEMEPERLLDHGVFVPLMIMFPEANIPVVPLSVLRSGDPAEHIRMGKALRPLRSDAVMFIGSGSTMHHFAHFNREGAGRKFGDALTSILCKNEVATLPEDRLKAMERVKTMEGFTEAQPLREHEHLMPLLTLVGAANGNIAEEVASISFGRANVRNYLFTE | not soluble |
| TPLSRSERIELQSLLSARQYDAGAPDGIIGANTRKAIRSAQQSFGWPADGYPTHELLEALRKPVGQ | not soluble |
| MGSDKIHHHHHHMDGEGMSVGHYENFPVGSLILPRRLRKPVHAVYAFARTADDMADEGSMPSEARLSGLEGLRRELDVLASGGRSAHPLIARLDAEAVVPFGLDLQPFYDLLSAFSQDVVKTRYAHFGDLTDYCRRSANPVGRIMLALYGKTDAVCVAQSDGICTALQLVNFWQDVAVDWQKGRVYIPQDDLLKFGVSEEQIAAGRADAAFQRLMAYECRRAFRMLKAGSPLARELKGRIGLELRMIVLGAQLILQKLDACRYDVFAQRPVLDKKDWLIMLKRALWK | not soluble |
| MGSDKIHHHHHHMILAAKLFGISENGIRVAVTRLASEGVIVSAERGFYQLSEQSLEWADVMLNRRAGLKETKAWNQKYLCVLTGTLGRVDRTALKRRERALKKYGFRELEPSVYIRPDNLVISLEDMLEHMKSIGLESGAKMCHINSFDQITTGMIKDLWQTENLNKNYEKYSHIIQHWLSRVPALGLEDAARESLLLGRQTISLLMNDPLLPEPFVNVEARDQFTADVKKLDEVGQRLWKQLHELTFGTAATSLLNLELPAVADVTPKILN | not soluble |
| MGSDKIHHHHHHMNGKTIILANPRGFCAGVDRAISIVERALEEFGAPVYVRHEVVHNKFVVDNLREKGAVFIEDLAEVPPGATLVYSAHGVSKAVQQEAAERGFRVFDATCPLVTKVHKEVARLDAQDCEIIMIGHKGHAEVEGTMGQLAPGKMLLVETVGDVAKLEVRNPDKLAYVSQTTLSVDETKDIIAALNARFPNIRNPHKEDICYATTNRQTAVKELAEQCDIVIVVGSPNSSNSNRLREVAASRGIDAYMVDNASYLQRTWFEGKSKVGVTAGASAPEVLVREVLATIRGWGHETVREGGGAEESIVFVLPKELRREGETKPDLCKR | not soluble |
| MEADGLGCAVCVLTGASRGFGRALAPQLARLLSPGSVMLVSARSESMLRQLKEELGAQQPDLKVVLAAADLGTEAGVQRLLSAVRELPRPEGLQRLLLINNAATLGDVSKGFLNVNDLAEVNNYWALNLTSMLCLTSGTLNAFQDSPGLSKTVVNISSLCALQPYKGWGLYCAGKAARDMLYQVLAAEEPSVRVLSYAPGPLDNDMQQLARETSKDPELRSKLQKLKSDGALVDCGTSAQKLLGLLQKDTFQSGAHVDFYD | soluble |
| MSLEDTGIFGYSRAGSINGIEYPYVINVKTDFVENDGKLNFMGEEIDRMLIYPSQIKQEIVETESFVIIPNGAELIRRPKNLVSIIMNVHEKYGFSKLIYLSGLPDPYSIPALVYLGVSFFDDAYFRIEGINGLQFTQYGIRRTNEDQTENNMNFVRSMLNVIKDSIMNGTLRDIVEKNLVSSKAAEMIRIADYSYYEEYEKIFPSRTPYIKANTIEDLYRPDIVRYREYVANLYEKPDLDVAVILPCSAKKPYSKSKSHQKVINSLSDLRKYIHEIIVTSPLGVVPRDLEETYPAMFYDIPVIGLWYEDEKVMMKRMLRSYMSRNKYRKVIAFVPDDLEFITDSIPYDTEFIEFKSSNLSKLRQTVEKEKFASKSIDQKKAKYESVLKYQFGSWILPLINGYSLRRNYNQDMIVKDGKILFVYNERLGKFTINKASAEMFVKNGRFLVEIDDFKPTSNVYAMGVRDATDDIRQEDEVVLVHSGEIRGVGIAKMNARAMMELKKGIAVKVREGHHHHHH | soluble |
| SDKFLVRPDLRDLQGGGEEPAPTGGASGDLKSPDWRHLRAEGLSCDYTVLFGKAEADKIFRELEQEVEYFTGALAKVQVFGKWHSVPRKQATYGDAGLTYTFSGLTLTPKPWVPVLERVRDRVCEVTGQTFNFVLVNRYKDGCDHIGEHRDDERELAPGSPIASVSFGACRDFIFRHKDSRGKRPRRTVEVVRLQLAHGSLLMMNPPTNTHWYHSLPIRKRVLAPRVNLTFRKILPTKK | soluble |
| VREILSIHVGQCGNQIADSFWRLALREHGLTEAGTLKEGSNAAANSNMEVFFHKVRDGKYVPRAVLVDLEPGVIARIEGGDMSQLFDESSIVRKIPGAANNWARGYNVEGEKVIDQIMNVIDSAVEKTKGLQGFLMTHSIGGGSGSGLGSLILERLRQAYPKKRIFTFSVVPSPLISDSAVEPYNAILTLQRILDNADGAVLLDNEALFRIAKAKLNRSPNYMDLNNIIALIVSSVTASLRFPGKLNTDLSEFVTNLVPFPGNHFLTASFAPMRGAGQEGQVRTNFPDLARETFAQDNFTAAIDWQQGVYLAASALFRGDVKAKDVDENMATIRKSLNYASYMPASGGLKLGYAETAPEGFASSGLALVNHTGIAAVFERLIAQFDIMFDNHAYTHWYENAGVSRDMMAKARNQIATLAQSYRDAS | soluble |
| AIASKKKGLSFDDKRTRMLEIFTESKTFFTLKELEKVAPKQKGIVLPSVKEVLQSLVDDDVVSSDKCGTQTVYWCLPSQAVQKKRCRIASLTEHLQAKYALRQQLFQRRDELRNSHQDTEERTHFIEQINELESKLKLIQEQLDIYKESDPEVLAEIRNVSHIAWEATNRWTDNIFSIRSWVTSKFGLPSSEFDKNFGLSEDFDYI | soluble |
| GMSEENKIGTYQFVAEPFHVDFNGRLTMGVLGNHLLNCAGFHASDRGFGIATLNEDNYTWVLSRLAIELDEMPYQYEKFSVQTWVENVYRLFTDRNFAVIDKDGKKIGYARSVWAMINLNTRKPADLLALHGGSIVDYICDEPCPIEKPSRIKVTSNQPVATLTAKYSDIDINGHVNSIRYIEHILDLFPIELYQTKRIRRFEMAYVAESYFGDELSFFCDEVSENEFHVEVKKNGSEVVCRSKVIFE | soluble |
| MKVLLANPRGFCAGVDRAIEIVKRTIDMLGTPIYVRHEVVHNRFVVDDLKQRGAIFVEELHQVPDGATVIFSAHGVSQAVRRQAAQRGLKVFDATCPLVTKVHLDVARHCRTGRDMILIGHAGHPEVEGTMGQWDQERGTGRIYLVENIDDVATLHVAQPHHLAYTTQTTLSVDDTRNIIDALRQRFPTIQGPKNNDICYATQNRQDAVRELARECDLVLVVGSPNSSNSNRLSELAQREGVASYLIDSAAEIDPAWVIDKHHIGVTAGASAPQVLVDGVLARLYELGAT | not soluble |
| ASTSRLDALPRVTCPNHPDAILVEDYRAGDMICPECGLVVGDRVIDVGSEWRTFSNDK | soluble |
| GMNTNLASFIVGLIIDENDRFYFVQKDGQTYALAKEEGQHTVGDTVKGFAYTDMKQKLRLTTLEVTATQDQFGWGRVTEVRKDLGVFVDTGLPDKEIVVSLDILPELKELWPKKGDQLYIRLEVDKKDRIWGLLAYQEDFQRLARPAYNNMQNQNWPAIVYRLKLSGTFVYLPENNMLGFIHPSERYAEPRLGQVLDARVIGFREVDRTLNLSLKPRSFEMLENDAQMILTYLESNGGFMTLNDKSSPDDIKATFGISKGQFKKALGGLMKAGKIKQDQFGTELI | soluble |
| MGSDKIHHHHHHMIREIRITSFEGLISEMESLGKELWFRGVTNKNYSLIPGSVRFDLNGWKEVSAVLDFMASYQNHHDYIESNWELYSLMQHYGFPTRLLDWSTSVIVALYFALDGDADVDDAGSAIDRVVWGMTTGMLNNLNFLNRRVIPTAIGKATTGEKYLPSPLRKKEGDDFEFEKNPLAVKMPFTNKRVSAQKGCFTIHGSNPKGIEEIMEENGLGSELIKFVFDEEAAMAIRKTLYKLDINEDDIYQDLNSLSKRIVLVNPNWTLLVENFQILQVTDHH | not soluble |
| MGSDKIHHHHHHMAATLKLSQLISALSYALDITEGQPEGHCVRSCWIGMHIGRALGLAPQELWDLYYAILLKDLGCSSNAARICELYRTDDRSFKQDFKQVGASLPQMLGFVFSHTGTHAAGWRERAASVVQVLRRGKEMADELINTRCHRGADIARQLRFNENVANGIQYLDEHWDGSGRPLGLQRDAIPLNARIALLAQVIDVFHVTHGRHAALDEAVRRGGGWFDPELVAAFRGASRDTAFWQRLESDDIERAVLALEPAQCTVPLDEDYMDEIAEGFGQVVDSKSPFTAGHSQRVGHYADRIGEELGLSPQRRRWLKRGALLHDVGKLGVSNTILDKPGKLTPEEWEAVKLHASHTETILGRIESFAELAKVAGAHHERLDGKGYPRGLMASEIALETRVITTADIFDAIHAARPYHPENPVPETLDIMRKNLGSALDPACFEALEAVLREEDALESDAICLT | not soluble |
| MAGYALKRLMTEYKELTTRPPEGIIAAPIDEDNFFEWECLITGPEETCFANGVFPARITFPQDYPLSPPKMRFTCGIFHPNIYADGRVCISILHAPGDDPTGYELSNERWSPVQSIEKILLSVVSMLAEPNDESPANVSAAKMWREDRAQFEKIADSLVRKTLCLPASEV | not soluble |
| MTEAKIVDISSKDIVLREAVVEGYIKLRKETIEKIKNKEVEKGDVITVAKTAGILAAKKTPELIPMCHPIPLEFVDVEIKIEEEGLRVISTVKAHYKTGVEMEALTATSVALLTIWDMVKKYEKDENGQYPYTEIKSIRVINKIKTYDDMK | soluble |
| MSLKVLAITGYKPFELGIFKQDDKALYYIKKAIKNRLIAFLDEGLEWILISGQLGVELWAAEAAYDLQEEYPDLKVAVITPFYEQEKNWKEPNKEQYEAVLAQADYEASLTHRPYESPLQFKQKNQFFIDKSDGLLLLYDPEKEGSPKYMLGTAEKRREQDGYPIYFITMDDLRVTVEEDSYEGHHHHHH | soluble |
